# According to patent US20140087995A1 (published 2014):
# Numbered stars: 1 amine (or outer) side, 2 acyl side, 3 side chain; on linkers, the order of the positions; unused ones are H or OH. Bridge positions count the residues as written; N and C are the ends. Side chains are listed from the residue outwards. Ends that are not written are not given here. * marks the point of attachment. C20 diacid = O=C(O)CCCCCCCCCCCCCCCCCCC(=O)*; γGlu = O=C(O)[C@H](CCC(=O)[*:2])N[*:1]; AEEA = NCCOCCOCC(=O)O
# T1: human amylin receptor (human, UniProt P30988 25-474; O60896 24-148, limits assumed)
# T1 construct: whole, on cells; Used as cell membranes prepared from the Amylin 3(a)/CRE-luc BHK cells (Assay V); also called hAmylin-R; hAmylinR
# T1 sequence (looked up) 1: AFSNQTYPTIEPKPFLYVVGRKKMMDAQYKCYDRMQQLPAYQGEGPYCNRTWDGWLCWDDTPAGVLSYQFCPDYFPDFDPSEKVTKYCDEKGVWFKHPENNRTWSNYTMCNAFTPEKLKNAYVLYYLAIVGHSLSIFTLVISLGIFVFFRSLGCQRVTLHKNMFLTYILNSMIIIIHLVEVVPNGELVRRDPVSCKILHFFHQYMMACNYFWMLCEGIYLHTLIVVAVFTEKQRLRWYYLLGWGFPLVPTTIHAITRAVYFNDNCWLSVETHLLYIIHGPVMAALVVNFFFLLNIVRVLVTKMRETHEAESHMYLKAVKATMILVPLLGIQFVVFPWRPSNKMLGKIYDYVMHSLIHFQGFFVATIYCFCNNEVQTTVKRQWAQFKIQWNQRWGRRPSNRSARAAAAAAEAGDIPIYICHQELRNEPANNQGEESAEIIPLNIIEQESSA
# T1 sequence (looked up) 2: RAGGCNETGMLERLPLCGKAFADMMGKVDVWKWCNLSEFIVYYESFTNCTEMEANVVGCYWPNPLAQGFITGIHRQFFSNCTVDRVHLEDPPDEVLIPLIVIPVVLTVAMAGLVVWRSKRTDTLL
# Target: T1, human amylin receptor
# Assay: SPA competition vs 125I-rat amylin, membranes of amylin 3(a) receptor BHK cells (Assay V)
# Summary of the method: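 Membranes from BHK Amylin 3(a)/CRE-luc cells (35 ng/μL final) were mixed with SPA beads and test compounds in 50 mM Hepes pH 7.4 with 1 mM CaCl2, 5 mM MgCl₂, 0.1% OA and 0.02% Tween20. Incubation ran 120 min at 25° C with shaking; IC₅₀ came from one-site competition fitting.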
row,Binder,IC50
1,K([γGlu-γGlu-C20 diacid])CNTATCATQRLAEFLRHSSPNFGAIPSSTNVGPETY-NH2 (disulfide 2-7; N-terminus assumed; SMILES CC[C@H](C)[C@H](NC(=O)[C@H](C)NC(=O)CNC(=O)[C@H](Cc1ccccc1)NC(=O)[C@H](CC(N)=O)NC(=O)[C@@H]1CCCN1C(=O)[C@H](CO)NC(=O)[C@H](CO)NC(=O)[C@H](Cc1c[nH]cn1)NC(=O)[C@H](CCCNC(=N)N)NC(=O)[C@H](CC(C)C)NC(=O)[C@H](Cc1ccccc1)NC(=O)[C@H](CCC(=O)O)NC(=O)[C@H](C)NC(=O)[C@H](CC(C)C)NC(=O)[C@H](CCCNC(=N)N)NC(=O)[C@H](CCC(N)=O)NC(=O)[C@@H](NC(=O)[C@H](C)NC(=O)[C@@H]1CSSC[C@H](NC(=O)[C@@H](N)CCCCNC(=O)CC[C@H](NC(=O)CC[C@H](NC(=O)CCCCCCCCCCCCCCCCCCC(=O)O)C(=O)O)C(=O)O)C(=O)N[C@@H](CC(N)=O)C(=O)N[C@@H]([C@@H](C)O)C(=O)N[C@@H](C)C(=O)N[C@@H]([C@@H](C)O)C(=O)N1)[C@@H](C)O)C(=O)N1CCC[C@H]1C(=O)N[C@@H](CO)C(=O)N[C@@H](CO)C(=O)N[C@H](C(=O)N[C@@H](CC(N)=O)C(=O)N[C@H](C(=O)NCC(=O)N1CCC[C@H]1C(=O)N[C@@H](CCC(=O)O)C(=O)N[C@H](C(=O)N[C@@H](Cc1ccc(O)cc1)C(N)=O)[C@@H](C)O)C(C)C)[C@@H](C)O),0.121 nM
2,"{C20 diacid-γGlu}-KCNTATCATQRLAEFLRHSSPNFGAIPSSTNVGKNTY-NH2 (disulfide 2-7; SMILES CC[C@H](C)[C@H](NC(=O)[C@H](C)NC(=O)CNC(=O)[C@H](Cc1ccccc1)NC(=O)[C@H](CC(N)=O)NC(=O)[C@@H]1CCCN1C(=O)[C@H](CO)NC(=O)[C@H](CO)NC(=O)[C@H](Cc1c[nH]cn1)NC(=O)[C@H](CCCNC(=N)N)NC(=O)[C@H](CC(C)C)NC(=O)[C@H](Cc1ccccc1)NC(=O)[C@H](CCC(=O)O)NC(=O)[C@H](C)NC(=O)[C@H](CC(C)C)NC(=O)[C@H](CCCNC(=N)N)NC(=O)[C@H](CCC(N)=O)NC(=O)[C@@H](NC(=O)[C@H](C)NC(=O)[C@@H]1CSSC[C@H](NC(=O)[C@H](CCCCN)NC(=O)CC[C@H](NC(=O)CCCCCCCCCCCCCCCCCCC(=O)O)C(=O)O)C(=O)N[C@@H](CC(N)=O)C(=O)N[C@@H]([C@@H](C)O)C(=O)N[C@@H](C)C(=O)N[C@@H]([C@@H](C)O)C(=O)N1)[C@@H](C)O)C(=O)N1CCC[C@H]1C(=O)N[C@@H](CO)C(=O)N[C@@H](CO)C(=O)N[C@H](C(=O)N[C@@H](CC(N)=O)C(=O)N[C@H](C(=O)NCC(=O)N[C@@H](CCCCN)C(=O)N[C@@H](CC(N)=O)C(=O)N[C@H](C(=O)N[C@@H](Cc1ccc(O)cc1)C(N)=O)[C@@H](C)O)C(C)C)[C@@H](C)O, also called compound 36)",0.403 nM
3,"K([AEEA-γGlu-C20 diacid])CNTATCATQRLANFLRHSSPNFGAIPSSTNVGSNTY-NH2 (disulfide 2-7; N-terminus assumed; SMILES CC[C@H](C)[C@H](NC(=O)[C@H](C)NC(=O)CNC(=O)[C@H](Cc1ccccc1)NC(=O)[C@H](CC(N)=O)NC(=O)[C@@H]1CCCN1C(=O)[C@H](CO)NC(=O)[C@H](CO)NC(=O)[C@H](Cc1c[nH]cn1)NC(=O)[C@H](CCCNC(=N)N)NC(=O)[C@H](CC(C)C)NC(=O)[C@H](Cc1ccccc1)NC(=O)[C@H](CC(N)=O)NC(=O)[C@H](C)NC(=O)[C@H](CC(C)C)NC(=O)[C@H](CCCNC(=N)N)NC(=O)[C@H](CCC(N)=O)NC(=O)[C@@H](NC(=O)[C@H](C)NC(=O)[C@@H]1CSSC[C@H](NC(=O)[C@@H](N)CCCCNC(=O)COCCOCCNC(=O)CC[C@H](NC(=O)CCCCCCCCCCCCCCCCCCC(=O)O)C(=O)O)C(=O)N[C@@H](CC(N)=O)C(=O)N[C@@H]([C@@H](C)O)C(=O)N[C@@H](C)C(=O)N[C@@H]([C@@H](C)O)C(=O)N1)[C@@H](C)O)C(=O)N1CCC[C@H]1C(=O)N[C@@H](CO)C(=O)N[C@@H](CO)C(=O)N[C@H](C(=O)N[C@@H](CC(N)=O)C(=O)N[C@H](C(=O)NCC(=O)N[C@@H](CO)C(=O)N[C@@H](CC(N)=O)C(=O)N[C@H](C(=O)N[C@@H](Cc1ccc(O)cc1)C(N)=O)[C@@H](C)O)C(C)C)[C@@H](C)O, also called compound 41)",0.427 nM
4,"K([AEEA-C20 diacid])CNTATCATQRLANFLRHSSPNFGAIPSSTNVGSNTY-NH2 (disulfide 2-7; N-terminus assumed; SMILES CC[C@H](C)[C@H](NC(=O)[C@H](C)NC(=O)CNC(=O)[C@H](Cc1ccccc1)NC(=O)[C@H](CC(N)=O)NC(=O)[C@@H]1CCCN1C(=O)[C@H](CO)NC(=O)[C@H](CO)NC(=O)[C@H](Cc1c[nH]cn1)NC(=O)[C@H](CCCNC(=N)N)NC(=O)[C@H](CC(C)C)NC(=O)[C@H](Cc1ccccc1)NC(=O)[C@H](CC(N)=O)NC(=O)[C@H](C)NC(=O)[C@H](CC(C)C)NC(=O)[C@H](CCCNC(=N)N)NC(=O)[C@H](CCC(N)=O)NC(=O)[C@@H](NC(=O)[C@H](C)NC(=O)[C@@H]1CSSC[C@H](NC(=O)[C@@H](N)CCCCNC(=O)COCCOCCNC(=O)CCCCCCCCCCCCCCCCCCC(=O)O)C(=O)N[C@@H](CC(N)=O)C(=O)N[C@@H]([C@@H](C)O)C(=O)N[C@@H](C)C(=O)N[C@@H]([C@@H](C)O)C(=O)N1)[C@@H](C)O)C(=O)N1CCC[C@H]1C(=O)N[C@@H](CO)C(=O)N[C@@H](CO)C(=O)N[C@H](C(=O)N[C@@H](CC(N)=O)C(=O)N[C@H](C(=O)NCC(=O)N[C@@H](CO)C(=O)N[C@@H](CC(N)=O)C(=O)N[C@H](C(=O)N[C@@H](Cc1ccc(O)cc1)C(N)=O)[C@@H](C)O)C(C)C)[C@@H](C)O, also called compound 43) [N^ε1-[2-[2-[2-(19-carboxynonadecanoylamino)ethoxy]ethoxy]acetyl]-[Arg17,Pro21,Pro27]-h-amylin]",0.076 nM
5,"{C20 diacid-γGlu}-GRCNTATCATQRLANFLRHSSPNFGAIPSSTNVGSNTY-NH2 (disulfide 3-8; SMILES CC[C@H](C)[C@H](NC(=O)[C@H](C)NC(=O)CNC(=O)[C@H](Cc1ccccc1)NC(=O)[C@H](CC(N)=O)NC(=O)[C@@H]1CCCN1C(=O)[C@H](CO)NC(=O)[C@H](CO)NC(=O)[C@H](Cc1c[nH]cn1)NC(=O)[C@H](CCCNC(=N)N)NC(=O)[C@H](CC(C)C)NC(=O)[C@H](Cc1ccccc1)NC(=O)[C@H](CC(N)=O)NC(=O)[C@H](C)NC(=O)[C@H](CC(C)C)NC(=O)[C@H](CCCNC(=N)N)NC(=O)[C@H](CCC(N)=O)NC(=O)[C@@H](NC(=O)[C@H](C)NC(=O)[C@@H]1CSSC[C@H](NC(=O)[C@H](CCCNC(=N)N)NC(=O)CNC(=O)CC[C@H](NC(=O)CCCCCCCCCCCCCCCCCCC(=O)O)C(=O)O)C(=O)N[C@@H](CC(N)=O)C(=O)N[C@@H]([C@@H](C)O)C(=O)N[C@@H](C)C(=O)N[C@@H]([C@@H](C)O)C(=O)N1)[C@@H](C)O)C(=O)N1CCC[C@H]1C(=O)N[C@@H](CO)C(=O)N[C@@H](CO)C(=O)N[C@H](C(=O)N[C@@H](CC(N)=O)C(=O)N[C@H](C(=O)NCC(=O)N[C@@H](CO)C(=O)N[C@@H](CC(N)=O)C(=O)N[C@H](C(=O)N[C@@H](Cc1ccc(O)cc1)C(N)=O)[C@@H](C)O)C(C)C)[C@@H](C)O, also called compound 46) [N^-1-[(4S)-4-carboxy-4-(19-carboxynonadecanoylamino)butanoyl]-Gly[Arg1,Arg17,Pro21,Pro27]-h-amylin]",0.195 nM
